Results from publication PMC3596254.

Target: GFP-tagged T759A mutant DIAPH1 (murine pEGFP-mDia T751A) (murine) (UniProt O08808)
Test: co-IP

Sequence of UniProt O08808 (O08808 whole entry T751A): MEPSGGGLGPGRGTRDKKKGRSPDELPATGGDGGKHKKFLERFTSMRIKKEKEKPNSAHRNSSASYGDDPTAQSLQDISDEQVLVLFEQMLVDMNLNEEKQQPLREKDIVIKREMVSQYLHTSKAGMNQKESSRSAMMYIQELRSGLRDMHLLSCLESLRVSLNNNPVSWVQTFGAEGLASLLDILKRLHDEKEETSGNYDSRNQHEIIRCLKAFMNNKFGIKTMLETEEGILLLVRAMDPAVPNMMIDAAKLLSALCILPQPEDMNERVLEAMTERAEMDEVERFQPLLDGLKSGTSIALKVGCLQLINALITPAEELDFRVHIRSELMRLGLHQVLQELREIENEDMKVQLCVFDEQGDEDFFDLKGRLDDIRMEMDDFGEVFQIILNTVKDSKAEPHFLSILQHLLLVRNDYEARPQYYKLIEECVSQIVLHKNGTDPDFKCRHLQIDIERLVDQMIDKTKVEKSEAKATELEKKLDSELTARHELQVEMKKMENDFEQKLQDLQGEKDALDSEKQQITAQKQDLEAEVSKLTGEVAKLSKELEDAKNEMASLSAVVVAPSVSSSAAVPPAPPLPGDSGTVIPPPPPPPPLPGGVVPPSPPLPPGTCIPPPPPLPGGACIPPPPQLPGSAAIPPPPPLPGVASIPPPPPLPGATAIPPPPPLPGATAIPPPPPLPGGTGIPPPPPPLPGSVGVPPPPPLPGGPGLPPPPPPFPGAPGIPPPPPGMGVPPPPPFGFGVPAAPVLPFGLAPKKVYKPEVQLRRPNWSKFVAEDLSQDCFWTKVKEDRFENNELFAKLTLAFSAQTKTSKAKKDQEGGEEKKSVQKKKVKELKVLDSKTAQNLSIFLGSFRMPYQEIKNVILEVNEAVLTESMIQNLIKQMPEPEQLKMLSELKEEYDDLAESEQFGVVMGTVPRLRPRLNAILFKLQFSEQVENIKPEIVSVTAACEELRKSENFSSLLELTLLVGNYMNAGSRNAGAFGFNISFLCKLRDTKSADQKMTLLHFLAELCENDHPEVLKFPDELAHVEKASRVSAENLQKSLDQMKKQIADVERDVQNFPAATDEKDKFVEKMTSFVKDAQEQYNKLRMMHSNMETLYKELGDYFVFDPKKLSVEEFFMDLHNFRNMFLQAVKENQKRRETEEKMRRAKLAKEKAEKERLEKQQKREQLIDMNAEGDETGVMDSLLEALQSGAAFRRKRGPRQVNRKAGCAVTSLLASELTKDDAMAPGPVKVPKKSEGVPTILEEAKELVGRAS

percent decrease of the co-precipitate against wild type [%] | Substance
86 | Actin, β (from UniProt P60709 1-375) (natural protein)
65 | Kinesin heavy chain (from UniProt P33176 1-963) (natural protein)
